The test relates to GOLPH3 localization at the Golgi in A549 cells. Description: Immunofluorescence of GOLPH3 localization. To be noted: A549 treated with EGF at specific time points. The test is classed as cell-based, human. The method, then: For immunofluorescence studies, cells were cultured on cover slips, followed by fixation for 15 min at RT in 4% paraformaldehyde in PBS, permeabilization for 10 min RT in 0.1% Triton X-100/PBS and blocking 1 hr RT in 10% goat or donkey serum/PBS. Slides were incubated 1 hr RT with the following antibodies: mouse anti-HA (1:100, Cell Signaling); rabbit anti-TGN46 (1:500; Abcam), goat anti-VPS35 (1:200; Abcam) and mouse anti-GOLPH3 (1:300). Slides were stained for 1 hour RT with the corresponding Alexa Flour secondary antibodies (Invitrogen). Cover slips were stained with DAPI (Sigma) and mounted with mounting medium. Microscopic images were obtained with a Nikon inverted Ti microscope equipped with Yokogawa spinning disk confocal/TIRF system and a Hamamatsu Orca ER firewire digital CCD camera using constant exposure times for each channel in individual experiments. Images were compiled and false-colored with Adobe Photoshop using identical settings for each color. Magnification is 100× unless otherwise indicated.
In order to determine whether or not ARF4 might regulate GOLPH3 localization at the Golgi apparatus, ARF4 siRNA were transfected into A549 cells.

B1: EGF: epidermal growth factor (Invitrogen), 100 ng/ml for stimulation assays (protein, UniProt P01133 23-1207, looked up)
Pro-epidermal growth factor: PQHWSCPEGTLAGNGNSTCVGPAPFLIFSHGNSIFRIDTEGTNYEQLVVDAGVSVIMDFHYNEKRIYWVDLERQLLQRVFLNGSRQERVCNIEKNVSGMAINWINEEVIWSNQQEGIITVTDMKGNNSHILLSALKYPANVAVDPVERFIFWSSEVAGSLYRADLDGVGVKALLETSEKITAVSLDVLDKRLFWIQYNREGSNSLICSCDYDGGSVHISKHPTQHNLFAMSLFGDRIFYSTWKMKTIWIANKHTGKDMVRINLHSSFVPLGELKVVHPLAQPKAEDDTWEPEQKLCKLRKGNCSSTVCGQDLQSHLCMCAEGYALSRDRKYCEDVNECAFWNHGCTLGCKNTPGSYYCTCPVGFVLLPDGKRCHQLVSCPRNVSECSHDCVLTSEGPLCFCPEGSVLERDGKTCSGCSSPDNGGCSQLCVPLSPVSWECDCFPGYDLQLDEKSCAASGPQPFLLFANSQDIRHMHFDGTDYGTLLSQQMGMVYALDHDPVENKIYFAHTALKWIERANMDGSQRERLIEEGVDVPEGLAVDWIGRRFYWTDRGKSLIGRSDLNGKRSKIITKENISQPRGIAVHPMAKRLFWTDTGINPRIESSSLQGLGRLVIASSDLIWPSGITIDFLTDKLYWCDAKQSVIEMANLDGSKRRRLTQNDVGHPFAVAVFEDYVWFSDWAMPSVMRVNKRTGKDRVRLQGSMLKPSSLVVVHPLAKPGADPCLYQNGGCEHICKKRLGTAWCSCREGFMKASDGKTCLALDGHQLLAGGEVDLKNQVTPLDILSKTRVSEDNITESQHMLVAEIMVSDQDDCAPVGCSMYARCISEGEDATCQCLKGFAGDGKLCSDIDECEMGVPVCPPASSKCINTEGGYVCRCSEGYQGDGIHCLDIDECQLGEHSCGENASCTNTEGGYTCMCAGRLSEPGLICPDSTPPPHLREDDHHYSVRNSDSECPLSHDGYCLHDGVCMYIEALDKYACNCVVGYIGERCQYRDLKWWELRHAGHGQQQKVIVVAVCVVVLVMLLLLSLWGAHYYRTQKLLSKNPKNPYEESSRDVRSRRPADTEDGMSSCPQPWFVVIKEHQDLKNGGQPVAGEDGQAADGSMQPTSWRQEPQLCGMGTEQGCWIPVSSDKGSCPQVMERSFHMPSYGTQTLEGGVEKPHSLLSANPLWQQRALDPPHQMELTQ
modifications: Pro-epidermal growth factor
notes: epidermal growth factor (Invitrogen), 100 ng/ml for stimulation assays
For B1, the “GOLPH3 localization at the Golgi” value is recorded as “redistribution of GOLPH3 from the Golgi”.

Values taken from patent US20110262464A1, “Compositions, Kits, and Methods for the Diagnosis, Prognosis, and Monitoring of Cancer Using GOLPH3” (DANAFARBER CANCER INSTITUTE, INC., priority 2008, published 2011).
